Measurements from the DeepSol protein solubility set.

experiment: soluble on expression in E. coli; label from the status in PepcDB or PDB records

Soluble on expression in E. coli, not soluble:
MSLGIPLSQLIVESPKPLSSGITGLDEILNLGFQARSIYEIFGPPGIGKTNFGIQLVCNSLEGIQQSEINDDKILWIETFQEMPINILRERFQKFKIVEENVKRVRITKFGQLLYFFQNLFKLSQSVRYKLVIIDGFSQLVCDHLCTLSKRGGGMIDKTIHELKCRHLILIFTVMTKYTHSTGSTIIVLNDCMNTAFQSNEFESLEEYYEILDDGSNFFVNSNNERRKNNVHILKSALVANIAMGSKDSTWEVFLRDRIGLFRDWNEQVDETVFVKSKRVKASSSQSNEGCTTIKEMRINKRNFENLRIAIVFNLHGEDRKREGRNLKRSRSSDDRNYIVKFDFDKATGQLRDIIDLKPDTANIASFPTLSTSSSSCSQVFNNIDSNDNPLPNAEGKEEIIYDSEG
MSLGNPHMPLLLALSKGFVEPVYRAAFLASAASSGVLAALAVRPCDLESLAERLDIDDEDLPRLKEWLDMGIRLGDLGKREGCYKLRSLPAKALAQPGNDAIAAALEEVLRFHVPALLNGPRMLREGRRFSLDDQDGLVIARSTRVIQPLVEEAIARTLDRNAPVRLLEVGCGSGTYVRYAAELNPRLSALAVDLQQDVADSAAANMAEWGLTDRVETRQADLRTLDAQPQFDLVTLHNNIYYFPEAERVEALRRAHDLLAPGGRLLLTTSCKGGNVGLEALNLWFTYADFGGPLPQADALADQLRQAGFDDVEATRIVPGEQFHAFTGTSKRVAHAEGHHHHHH
MSLGNSYAGQLKTTRFEEVLHNSIEASLRSNNLVPRPIFSQLYLEAEQQLAALEGGSRVDNEEEEEEGEGGLETNGPPNPFQLHPLPEGCCTTDGFCQAGKDLRLVSISNEPMDVPAGFLLVGVKSPSLPDHLLVCAVDKRFLPDDNGHNALLGFSGNCVGCGKKGFCYFTEFSNHINLKLTTQPKKQKHLKYYLVRNAQGTLTKGPLICWKGSEFRSRQIPASTCSSSLFPALESTAAFPSEPVPGTNPSILMGAQQAGPASDHPSLNAAMGPAVFNGKDSPKCQQLAKNNLLALPRPSALGILSNSGPPKKRHKGWSPESPSAPDGGCPQGGGNRAKYESAGMSCVPQVGLVGPASVTFPVVASGEPVSVPDNLLKICKAKPVIFKVFVNGATQMVALGPAEEGHHHHHH
MSLGSTQLQLHGLLSNISSKEGTYAKLGGLYTQSLARLVAKCEDLFMGGQKKELHFNENNWSLFKLTCNKPCCDSGDAIYYCATCSEDPGSTYAVKICKAPEPKTVSYCSPSVPVHFNIQQDCGHFVASVPSSMLSSPDAPKDPVPALPTHPPAQEQDCVVVITREVPHQTASDFVRDSAASHQAEPEAYERRVCFLLLQLCNGLEHLKEHGIIHRDLCLENLLLVHCTLQAGPREKQLPRLIISNFLKAKQKPGGTPNLQQKKSQARLAPEIVSASQYRKFDEFQTGILIYELLHQPNPFEVRAQLRERDYRQEDLPPLPALSLYSPGLQQLAHLLLEADPIKRIRIGEAKRVLQCLLWGPRRELVQQPGTSEEALCGTLHNWIDMKRALMMMKFAEKAVDRREGHHHHHH
MSLIDLKPKVERVDAIQSFVSQETPIVTIHDSDGASGTGYSYTIGTGGPSVMALLEQTLVPALIGKDADRIDGIWRDLLFLTHATAVGPITSLALAAIDIALWDLRCKKMGLPLWKAAGGSRDRIPLYSTEGGWLHLETAALVEDALAMKEQGFRGSKIKIGRAHLSEDRARLGAIRAAVGDSYEIMTDANQGFTLSEAIRRAKVLEEFGIGWFEEPLPADDVLSHQELSRRTHVPIAVGESMYSLSQFKDYLQVGAAQIVQVDVARIGGITPWLKVAHLAEAHSVMVCPHFLMELHLPLVCAVPNAKWLEYIPQLDGVTRQNMQISNGDAVPSDEPGLGIDWDWDAITAQEIGARSIGGAEGHHHHHH
MSLINLWPLLLPAAAWSGWWLANRSNSNKDAHVHNRLSREYVVGLNYLLNEQSDKAVDVFIKLLEVDSDTVETHLALGSLFRRRGEVDRAIRIHQNLIARPQLSIQQRKEALMALGQDYMSAGVFDRAERIFLEVVELGGSRDTSSLQGLLAIYQQEKAWEKALDIIKKLEISTGASFHNQAAHYYCEMASQALKINAMDRAIYCIKQAMNVDPESVRASLMNATIEIKEGRYKQAIRSLKRVPQQDAEFLTEIIEPLVLCHKELDSMPDCIHYLEQTLEKHPRASVIFVIADYLRQNKGMDIAIDFVADNLSKHPSIRGLNRLIYWHLESAHGKVREKLQMLYDITSKFLDNKPIYRCGHCGFGGKHLHWHCPSCKQWGRMKPIHGLEGDEGHHHHHH

Soluble on expression in E. coli, soluble:
MSLGIENDRKLVVNCLPLTEAERAQFTRAAKGMPQEFVGDPAQRGSMNWTAEIPDELKAYATAVIGNITPETCAQCPRLEWLQTWSAGVDKYQHPGILQPGSMLTNATGAYGQSVSEHMFAMMWAIMKNLHIYAVGNPNAAWQDAGRVISPDGKTALIIGTGDIGSHFARLCKSVGMSTIGIRRNPTVEAPGIDHMVGFESLDDVLQYADVIAMCVPSTPSTHHLLNAERIAKLKTDATVINAGRGDAIDTQALADALANGMIRGAGLDVTEPEPLPAASPLWSEPKCLITPHVAGGNHLESTERRIIAIALGNVRCYANGQSLDNRMPLKGEGHHHHHH
MSLGISNAIDNSVRARVLGIKTEFRNFNTGRTFFLPQHVALLGQGNTAATYELTPFRATSAAQVGQRFGFGSPLHLAALQLLPDNNDGLRSIPLTIFPMGDNDAGVAAEGVLDLSGTASATATVRVRIGSQRSSLVTIPTGTTAEQAAALLVAGIQGNPFMPMTAAVDGTNANEVDVTAKWQGLSGNDLVVSIEGSIPGITVAITQPTGGAADPEVADTLALFGENVWYTQIVSCFNTANTDALDAFETFGEGRWDPILRRPLAVFTGTNETDPNTLAAIGDARRAQRTNLVTPVPGAQNLPCEIAAAWVARVARSANNDPASDFARLTLPGLTPGTDAQQWTHTQRDLLVKAGISTSIVRDGVAEISDTVTTYHPTGEVNPGYLFYKDTVKASNVLFNLDLIFNTREWDGAPLIPDDQPTTNARAKRPKDAVAVLSVLANNLGLDAIISDVPFTLENIRASINDQNPNRLDIIFPAKNSGNANIISADYFFGFFLGTEGHHHHHH
MSLGPILVASEDYGRRVELSAMLRGFGYRVIEAENGLRTIDLLHRRKNIVLALLDVVMSDLSVGDLIKMIRVAGVAVPIVVIAQQENQELLQKALTAGAIDYWIHPVTLLRLRVTLDTLALISALEREVHYIRRKKENHLRFSDLSIKSRAMQIVLEQSKRAASSLQNLLIEGEVGTGRETLARIIHHEGLLSEGDFIRFQCLAIVDPEEENHQWFKEFIPLVSSLEKGTLCLCDVDRLEPIQQKRFMHYLKEREKATKDKVFPFRIIAISTSRLSDLVKEGFFLHSLFEQFSQLSISVPALRELRDDFPDLTQRLIDRIITETGRSHVHGLAGSALSLLMQYDWPGNRNGLENFLFRAILLSDGPLLTVRDFPQLMGNSLMNVPKIIESNMQEDHEQESVKFLDVDGHVRTFAEMERDIIEKAFKHYKGHMSEIARRLRIGRSTLYRKIEGLRAISSQEGHHHHHH
MSLGSTQLQLHGLLSNISSKEGTYAKLGGLYTQSLARLVAKCEDLFMGGQKKELHFNENNWSLFKLTCNKPCCDSGDAIYYCATCSEDPGSTYAVKICKAPEPKTVSYCSPSVPVHFNIQQDCGHFVASVPSSMLSSPDAPKDPVPALPTHPPAQEQDCVVVITREVPHQTASDFVRDSAASHQAEPEAYERRVCFLLLQLCNGLEHLKEHGIIHRDLCLENLLLVHCTLQAGPREKQLPRLIISNFLKAKQKPGGTPNLQQKKSQARLAPEIVSASQYRKFDEFQTGILIYELLHQPNPFEVRAQLRERDYRQEDLPPLPALSLYSPGLQQLAHLLLEADPIKRIRIGEAKRVLQCLLWGPRRELVQQPGTSEEALCGTLHNWIDMKRALMMMKFAEKAVDRRRGVELEDWLCCQYLASAEPGALLQSLKLLQEGHHHHHH
MSLGSVKIVSDLPLQGANRAQTISMVNAIRLAIDQRGGKVAGLKIEYESLDDATAQSGQWDEGKCAENAQQAAQDEEIVGWIGPFNSGCAAVEIPILNEAGLVMISPANTYVGLTKEGGEPDEPDKYYPTGQRNYTRVIPADDKQGRLAAVLMREEGVRTVFILDDRETYGKGLADQVQKSAEEFGIEVVGRQGIDGSASNYRGLMNRVREANPDAIYFGGIIENNAGQLVRDKVGAGMPNDEVLFIGPDGIFVDTFIEQAGDAAEGAYVTFGGIPPERLGERGQRFIEEYNAKYPDDPIQAYTAYAYEAANVLLDAIERAQKADGEVNRENVLREVFATENYKGVLGTWSFDENGDTTLTKLSVQRVQNGEFKLDRVLDVSREGHHHHHH
MSLHGELDKIYETLALAERRGPGPVDLLLCCGDFQAVRNEADLRCMAVPPKYRHMQTFYRYYSGEKKAPVLTLFIGGNHEASNHLQELPYGGWVAPNIYYLGLAGVVKYRGVRIGGISGIFKSHDYRKGHFECPPYNSSTIRSIYHVRNIEVYKLKQLKQPIDIFLSHDWPRSIYHYGNKKQLLKTKSFFRQEVENNTLGSPAASELLEHLKPTYWFSAHLHVKFAALMQHQAKDKGQTARATKFLALDKCLPHRDFLQILEIEHDPSAPDYLEYDIEWLTILRATDDLINVTGRLWNMPENNGLHARWDYSATEEGMKEVLEKLNHDLKVPCNFSVTAACYDPSKPQTEGHHHHHH
MSLHIHILGICGTFMGGVAMLARQLGHKVTGSDANVYPPMSTMLEAQGIEIIEGFDPVQLEPKPDLVVIGNAMSRGNPCVEYVLNHNLRYTSGPQWLQDFLLHDRWVIAVSGTHGKTTTSSMIAWVLEHCGYQPGFLVGGVLGNFGISARLGESMFFVVEADEYDSAFFDKRSKFVHYHPRTLVMNNLEFDHADIFDNLEAIKRQFHHLVRTVPGNGRILAPKQDEALADVLQRGCWSETEFSGEQGEWQAEKITADGSQFHVLLKGERVGQVNWSLVGDHNVSNALMAIAAARHVGVAPELACEALGLFVNTKRRLELKGEINGVTVYDDFAHHPTAIELTLGGLRNKVGDKKIIAVLEPRSATMKLGVHKETLAASLHSADSVYLYQPSNIPWSVEEVAKQCQQPAQVSANMDEFVAMIAKEAQAGDQILVMSNGGFEGIHGKLLAALQQKEGHHHHHH
MSLHRSEKMKEIKEAYQQCGQIVGEYAPACFKALSYLPLKQRQASWAVLSFCHTAASADEKVLPAFEAKADHVYQRTNNGKQHLWKAFDHAYRTFTLESEPFREFIAAQKEDAKPYDDLDELLMYAYRTGGAAGLMLLPILTRRKQDQLKQAAVSLGLAIQLVRFLSDLGTDQQKNRIPRQVMQQFGYTEADLQKGTVNKAFTMTWEYIAFEAEAYLEECQDALPLFPQYSQKTVKAALHLHRAVLEKIRAKQHDVFQYHFALTETEVKQILSDIEGHHHHHH
MSLIELWPAIDLIGSTSVRLTEGKYDSEEKMSRSAEESIAYYSQFECVNRIHIVDLIGAKAQYAREFDYIKSLRRLTTKDIEVGGGIRTKSQIMDYFAAGINYCIVGTKGIQDTDWLKEMAHTFPGRIYLSVDAYGEDIKVNGWEEDTELNLFSFVRQLSDIPLGGIIYTDIAKDGKMSGPNFELTGQLVKATTIPVIASGGIRHQQDIQRLASLNVHAAIIGKAAHQASFWEGLEEGHHHHHH
MSLIFNKNCNVNKETQIEAFAIKNHDKKFVYPMGNIIGVKANTDGVLVLGYEEEDVDYIGGIQIGDNIVKIDNKRIKNSQDVSEILNKIKKSKVEVTFERKNKYKTEVIETKKENGKYKLGLWVRDKISGIGTMTFYDPSMEKFKAIGHAIKDSDTNELLKIKQGYIYKPEQLKIVKASNEKVGKIKGDFNDSNLMGNFSNNSELGISGNITENHNKEFNVANKEKQLIEVGRPQDVKIGDAVILFEDKNKNITSYDIKIESIVYDKGNYRDMVIKVVDDKLLEYTGGIVQGMSGAPIIQNNKIIGAITHVFRDNPKKGYGIFIDEMIKLEGHHHHHH
MSLIIIISGPPGSGKTSVAIKLANELSYKFISAGKIFRDIAQSMGLDIINLNRVAESNFDIDKMVDKKIHEYVLRERNLIVESHIAGWIFREYTDVAIYLWAPLKIRANRIAIRDKISYVEAVSQIIRREYMHYKRFNKFYGIDINDLSVFDLVINTSNIDINNIVKLILDYLSSVSHNEGHHHHHH
